This is an account of results in the nanobody polyreactivity screen of Harvey et al. (2022).

The nature of the series: yeast display, Sf9 membrane polyspecificity reagent, FACS + sequencing; frameworks hold sequencing errors. The gist of the method:
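In a synthetic yeast display library (Saccharomyces cerevisiae BJ5465), nanobody expression was induced with galactose for 36–48 hours. FACS gates were set low and high (top ~1%) using anti-HA fluorescence for expression and streptavidin fluorescence for binding of the Sf9 membrane reagent. Each polyreactivity label is drawn from the gate of origin.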
For “QVQLVESGGGLVQAGGSLRLSCAASGSIFTYNAMGWYRQAPGKERELVAAITRSGGRTYYADSVKGRFTISRDTAKNTVYLQMNSLKPEATAVYYCNTLRVGWGQGTQVTVSS”, the “polyreactivity (PSR sort gate)” value was “high polyreactivity”.

As to “QVQLVESGGGLVQAGGSLRLSCAASGSIFTYNAMGWYRQAPGKERELVAVISWSGGSTYYADSVKGRFTISRDNAKNTVYLQMNSLKPEDTAVYYCNAYYYRPYGNKYGYWGQGTQVTVSS”, the “polyreactivity (PSR sort gate)” value is “high polyreactivity”.

In the case of “QVQLVESGGGLVQAGGSLRLSCAASGSIFTYNVMGWYRQAPGKERELVASISWSGGRTYYADSVKGRFTISRDNAKNTVYLQMNSLKPEDTAVYYCNKVRPPVYFPNRDYWGQGTQVTVSS”, the “polyreactivity (PSR sort gate)” value was “low polyreactivity”.

With “QVQLVESGGGLVQAGGSLRLSCAASGSIFTYYAMGWYRPAPGKERELVATITRRGGRTYYADSVKGRFTISRDNAKNTVYLQMNSLKPEDTAVYYCATRIRTVAYNYWGQGTQVTVSS”, the “polyreactivity (PSR sort gate)” value is “high polyreactivity”.

As to “QVQLVESGGGLVQAGGSLRLSCAASGSIFTYYAMGWYRQAPGKERELVADISKRGGSTYYADSVKGRFTISRDNAKNTVYLQMNSLKPEYTAVYYCATRARYTWRAFEYWGQGTQVTVSS”, the “polyreactivity (PSR sort gate)” value is “low polyreactivity”.

As for “QVQLVESGGGLVQAGGSLRLSCAASGSIFVANAMGWYRQAPGKETELVAAISQDGGTKYYADSVKGRFTISRDNAKNTVYLQMNSLKPEDTAVYYSAAEYPSFPEDDEYDYWGQGTQVTVSS”, the “polyreactivity (PSR sort gate)” value is listed as “low polyreactivity”.

“QVQLVESGGGLVQAGGSLRLSCAASGSIFVAYAKGWYRPAPGKERELVAAISSSGGTTYYADSVKGRFTISRDNAKITVYLQMNSLKPEDSAVYYCAARDYKYYYWGQGTQVTVSS”: the “polyreactivity (PSR sort gate)” value is listed as “high polyreactivity”.

Consider “QVQLVESGGGLVQAGGSLRLSCAASGSIFVDNAMGWYRQAPGKERELVAVITLRSGSTNYADSVKGRFTISRDNAKNTVYLQMNSLKPEDTAVYYCAADDTYHDYQRDTDDDYWGQGTQVTVSS”, for which the “polyreactivity (PSR sort gate)” value was “low polyreactivity”.

Take “QVQLVESGGGLVQAGGSLRLSCAASGSIFVDYTMGWYLQAPGKERELVARITSGGSTYYADSVKGLFTISRDNAKNTVYLQMIRLNPEDTAVYYCAARPYYRYRNSWREQYYYWGQGTQVSVSS”: the “polyreactivity (PSR sort gate)” value is reported as “high polyreactivity”.

Regarding “QVQLVESGGGLVQAGGSLRLSCAASGSIFVEYAMGWYRQAPGKERELVAGISSGGITSYADSVKGRFTISRDNAKNTVYLQMNSLKPEDTAVYYCATDPYKWFFSSYYLLQEVEYWGQGTQVTVSS”, the “polyreactivity (PSR sort gate)” value is “low polyreactivity”.

For the sequence “QVQLVESGGGLVQAGGSLRLSCAASGSIFVFYARGWSRQAPGKERELVAAITSGGRTYYADSVKGRFTISRDNAKNTVYLQMNSLKPEDTAVYYCNAVRFYSIGLGQDDYWGQGTQVTVSS”, the “polyreactivity (PSR sort gate)” value is “low polyreactivity”.

In the case of “QVQLVESGGGLVQAGGSLRLSCAASGSIFVGNAMGWYRQAPGKEREFVASISWDGTTYYADSVKGRFTISRDNAKNTVYLQMNSLKPEDTAVYYCAADVSTYGAQATEGTDLEYDYWGQGTLVTVSS”, the “polyreactivity (PSR sort gate)” value is “low polyreactivity”.

In the case of “QVQLVESGGGLVQAGGSLRLSCAASGSIFVGNAMGWYRQAPGKERELVAAISWSGGSTYYADSVKGRFTISRDNAKNTVYLQMNSLKPEDTAVYYCATQLSIRMDYWGQGTQVTVSS”, the “polyreactivity (PSR sort gate)” value is recorded as “high polyreactivity”.

As to “QVQLVESGGGLVQAGGSLRLSCAASGSIFVGNAMGWYRQAPVKERELVADINVTGGTTYYADSVKGRFTISRDNAKNTVYLQMNSLKPEDTAVYYCAARQSIFYSWTGVEYYYWGQGTQVTVSS”, the “polyreactivity (PSR sort gate)” value is “low polyreactivity”.

Turning to “QVQLVESGGGLVQAGGSLRLSCAASGSIFVGNTMGWYRQAPGKERELVAAITWSGGRTYYADSVKGRFTISRDNAKNNVYLQMHSLKPEDTAVYYLKALAYYIRYYYWGKGTQVTVSS”, the “polyreactivity (PSR sort gate)” value is “high polyreactivity”.

Turning to “QVQLVESGGGLVQAGGSLRLSCAASGSIFVGYAMGWYRQAPGKERELVAAISKRGGGTYYADSVKGRFTISRDNAKNTVYLQMNSLKPEDTAVYYCNAVTVHLDVASGYYYWGQGTQVTVSS”, the “polyreactivity (PSR sort gate)” value is reported as “high polyreactivity”.

Regarding “QVQLVESGGGLVQAGGSLRLSCAASGSIFVGYAMGWYRQAPGKERELVAAISQRGGITYYADSVKGRFTISRDNAKNTVYLQMNSLKPEDTAVYYCAAPRYLSYVRRYDYWGQGTQVTVSS”, the “polyreactivity (PSR sort gate)” value was “high polyreactivity”.

Consider “QVQLVESGGGLVQAGGSLRLSCAASGSIFVGYAMGWYRQAPGKERELVAAISRSGGTTYYADSVKGRFTISRDTAKNTVYLQMNSLKPEDTAVYYCAAERWAYYRSGLWWPYDYWGQGTQVTVSS”, for which the “polyreactivity (PSR sort gate)” value is recorded as “high polyreactivity”.

Regarding “QVQLVESGGGLVQAGGSLRLSCAASGSIFVGYAMGWYRQAPGKERELVAAITSGGNTNYADSVKGRFTISRDNAKNTVYLQMNSLKPEDTAVYYCNKDQGDGLRSQLGTDATYDYWGQGTQVTVSS”, the “polyreactivity (PSR sort gate)” value is listed as “low polyreactivity”.

Regarding “QVQLVESGGGLVQAGGSLRLSCAASGSIFVGYAMGWYRQAPGKVRELVAAISRRGGSTYYADSVKGRFTISRDNAKNTLYLQMNSLKPEDTAVYYCAARQSTSATSGYYSWGQGTQVTVSS”, the “polyreactivity (PSR sort gate)” value was “high polyreactivity”.

As for “QVQLVESGGGLVQAGGSLRLSCAASGSIFVGYAMGWYRQARGKERELVAAITGSGTRTYYADSVKGRFTISRDNAKNTVYLQMNSLKPEDTAVYYCAAVTYHGNPSEYYPDTVGFYYWGQGTQVTVSS”, the “polyreactivity (PSR sort gate)” value is “low polyreactivity”.

“QVQLVESGGGLVQAGGSLRLSCAASGSIFVGYGAMGWYRQAPGKERELVAAITSGNSTYYADSVKGRFTISRDNAKNTVYLQMNSLKPEDTAVYYCAARGFLKYVTEFDYWGQGTQVTVSS”: the “polyreactivity (PSR sort gate)” value is recorded as “low polyreactivity”.

In the case of “QVQLVESGGGLVQAGGSLRLSCAASGSIFVHYAMGWYRQAPGKERELVAAITSSGGRTYYADSVKGRFTISRDNAKNTVYLQMNSLKPEDTAVYYCNAAKYLYRHGFLSAGDMYYWGQGTQVTVSS”, the “polyreactivity (PSR sort gate)” value was “high polyreactivity”.

As to “QVQLVESGGGLVQAGGSLRLSCAASGSIFVHYDMGWYRPAPGKERELVADIDYSGGSTYYADSVKGRFTISRDNAKNTVYLQMNSLKPEDTAVYYCAAERRRWGLDYYYWGQGTQVTVSS”, the “polyreactivity (PSR sort gate)” value is “high polyreactivity”.

On to “QVQLVESGGGLVQAGGSLRLSCAASGSIFVKNAMGWYRQAPGKERELVARSSFSGGSTYYADSVKGRFTISRDNAKNTVYLQMNSLKPEDTAVYYCAVDGGEFSSYGYWGQGTQVTVSS”, for which the “polyreactivity (PSR sort gate)” value is listed as “low polyreactivity”.

In the case of “QVQLVESGGGLVQAGGSLRLSCAASGSIFVKNVMGWYRQAPGKERELVAAISSSGGRTYYADSVKGRFTISRDNAKNTVYLQMNSLKPEDTAVYYCNKAYPGRRDGSYDYWGQGTQVTVSS”, the “polyreactivity (PSR sort gate)” value is “high polyreactivity”.

“QVQLVESGGGLVQAGGSLRLSCAASGSIFVKYAMGWYRQAPGKERELVAAISRNGGSTYYADSVKGRFTISRDNAKNTVYLQMNSLKPEDTAVYYCNKVRPGWTYEYGYWGQGTQVTVSS”: the “polyreactivity (PSR sort gate)” value is reported as “high polyreactivity”.

On to “QVQLVESGGGLVQAGGSLRLSCAASGSIFVKYAMGWYRQAPGKERELVAAITTGVGSTYYADSVKGRFTISRDNAKNTVYLQMNSLKPEDTAVYYCAAETIDYWYILEYDYWGQGTQVTVSS”, for which the “polyreactivity (PSR sort gate)” value is on record as “low polyreactivity”.

On to “QVQLVESGGGLVQAGGSLRLSCAASGSIFVLNAMGWYRQAPGKERELVAAITGTGDRTYYADSVKGRFTISRDNAKNTVYLQMNSLKPEDTAVYYCAATVGDAYYEYDYWGQGTQVTVSS”, for which the “polyreactivity (PSR sort gate)” value is recorded as “low polyreactivity”.

Take “QVQLVESGGGLVQAGGSLRLSCAASGSIFVLYAMGWYRQAPGKERELVAAINYDGASTYYADSVKGRFTNSRDNAKNTVYLQMISLKREDTAVYYCAASWQFNIDVQLYLFEYWGQGTQVTVSS”: the “polyreactivity (PSR sort gate)” value was “low polyreactivity”.

With “QVQLVESGGGLVQAGGSLRLSCAASGSIFVNNAMGWYRQAPGKERELVAAIRRGSSTNYADSVKGRFTISRDNAKNTVYLQMNSLKPEDTAVYYCAADHVDDEAQNYDYWGQGTQVTVSS”, the “polyreactivity (PSR sort gate)” value was “low polyreactivity”.

Take “QVQLVESGGGLVQAGGSLRLSCAASGSIFVPYAMGWYRQAPGKERELVAAINSGGGTDYADSVKGRFTISRDNAKNTVYLQMNSLKPEDTAVYYCAKSRVAYRGWDHKYYIYDYWGQGTQVTVSS”: the “polyreactivity (PSR sort gate)” value is listed as “low polyreactivity”.

For the sequence “QVQLVESGGGLVQAGGSLRLSCAASGSIFVPYAMGWYRQAPGKERELVAAISSRGGRTYYADSVKGRFTISRDNAKNTVYLQMNSLKPEDTAVYYCNKTAGSHIPRLEYWGQGTQVTVSS”, the “polyreactivity (PSR sort gate)” value was “low polyreactivity”.

As for “QVQLVESGGGLVQAGGSLRLSCAASGSIFVPYAMGWYRQAPGKERELVAAISSSTASTYYADSVKARFTISRDYAKNTVYFQMNCLKPEDTAVYYCNAEQWDYGVRVAHYDYWGQGTQVTVSS”, the “polyreactivity (PSR sort gate)” value is given as “low polyreactivity”.

In the case of “QVQLVESGGGLVQAGGSLRLSCAASGSIFVRNAMGWYRQAPGKERELVAAISRSGSSTYYADSVKGRFTISRDIAKNTVYLQMNSLKPEDTAVYYCAARRRYKMDYWGQGTQVTVSS”, the “polyreactivity (PSR sort gate)” value was “high polyreactivity”.

Turning to “QVQLVESGGGLVQAGGSLRLSCAASGSIFVRYAMGWYRQAPGKERELVASIRSRGDSTYYADSVKGRFTISRDNAKNTVYLQMNSLKPEDTAVYYCAVQRSYVGPRQYNYWGQGTQVTVSS”, the “polyreactivity (PSR sort gate)” value is on record as “high polyreactivity”.

As to “QVQLVESGGGLVQAGGSLRLSCAASGSIFVSNAMGWYRQAPGKEREMVAAISQSGGSTYYADSVKGLFTISRDNAKNTVYLQMNSLKPEDTEVYYCATPIRSGFRIYEYWGQGTQVTVSS”, the “polyreactivity (PSR sort gate)” value was “low polyreactivity”.

In the case of “QVQLVESGGGLVQAGGSLRLSCAASGSIFVSYAMGWYRQAPGKERELVAAITGRTGSTYYADSVKGRFTISRDNAKNTVYLQMNSLKPEDTAVYYCAARHKQHNRYDYWGHGTQVTVSS”, the “polyreactivity (PSR sort gate)” value is given as “low polyreactivity”.

“QVQLVESGGGLVQAGGSLRLSCAASGSIFVSYAMGWYRQAPGKERELVAAITGSGASTYYADSVKGRFTISRDNAKNTVYLQMNSLKPEDTAVYFCAAAPGKGPGYDYWGQGTQVTVSS”: the “polyreactivity (PSR sort gate)” value is “low polyreactivity”.

Turning to “QVQLVESGGGLVQAGGSLRLSCAASGSIFVSYAMGWYRQAPGKERELVAAITRSGGSTYYADSVKGRFTISRDNAKNTLYLQMNSLKPEDTAVYYCAARSYLGAYRRYYWGQGTQVTVSS”, the “polyreactivity (PSR sort gate)” value is on record as “high polyreactivity”.
